The values that follow are results of earlier work, collected in paper PMC1513386.

Where two headings read alike, the source gives them in different places.

Targets include Asp11 (UniProt position 39, WQNWTDGGGIV); Asp83 (UniProt position 111, EYYVVDSWGTY); Glu172 (UniProt position 200, QVMATEGYQSS); Asp106 (UniProt position 134, DGGTYDIYTTT); Asp26 (UniProt position 26, KLVVVDFSATW); Glu68 (UniProt position 68, QDVASECEVKC); Asp59 (UniProt position 80, VCCSTDKCN--).
In a further series the target is Asp18 (UniProt position 36, KRLGLDNYRGY). The series is described as follows: NMR.
For a further series, the target named is Glu7 (UniProt position 25, VYGRCELAAAM). The series is described as follows: NMR.
The next series has as its target Glu35 (UniProt position 53, CAAKFESNFNT). Put plainly: NMR.
The next series deals with Asp66 (UniProt position 84, RWWCNDGRTPG). The series is described as follows: NMR.
A further series addresses Asp87 (UniProt position 105, ALLSSDITASV). Put plainly: NMR.
The target of a further series is Asp48 (UniProt position 66, TNRNTDGSTDY). The series is described as follows: NMR.
For a further series, the target named is Asp44 (UniProt position 44, AARQPDLIPLL). Put plainly: NMR.
In a further series the target is Glu2 (UniProt position 2, ----MENLNMD). Put plainly: NMR.
In a further series the target is Glu37 (UniProt position 37, GGKFLEGAARQ). The series is described as follows: NMR.
A further series addresses Asp7 (UniProt position 7, ENLNMDLLYMA). Put plainly: NMR.
Another series has as its target Asp61 (UniProt position 61, VMGLVDAIPMI). Put plainly: NMR.
Series [1] deals with Asp101 (UniProt position 129, GTVKSDGGTYD).
In another series the target is Glu115 (UniProt position 142, SKKPKENPGPA). Put plainly: NMR.
Another series deals with Glu96 (UniProt position 123, DHYLLEFPTFP). The series is described as follows: NMR.
A further series has as its target Glu6 (UniProt position 6, MVKQIESKTAF). Conditions: listed under PDB 1TRS; redox state not stated in the article, and 1TRS is the oxidised form (inferred).
In a further series the target is Asp72 (UniProt position 92, NPPNCDLTVPT). Put plainly: NMR.
A further series deals with Asp30 (UniProt position 50, NQCSTDSGYSM). Put plainly: NMR.
The next series addresses Asp21 (UniProt position 41, VSILSDASFNQ). Put plainly: NMR.
A further series addresses Asp54 (UniProt position 101, KSIGGDIFSNR). The following applies: not stated (values are paired with the folded structure 1A2P; ref 20 covers native and denatured states).
In the next series the target is Asp93 (UniProt position 140, ILYSSDWLIYK). The following applies: not stated (values are paired with the folded structure 1A2P; ref 20 covers native and denatured states).
In series [2] the target is Asp101 (UniProt position 148, IYKTTDHYQTF). Conditions: not stated (values are paired with the folded structure 1A2P; ref 20 covers native and denatured states).
In the next series the target is Glu73 (UniProt position 120, GRTWREADINY). The following applies: not stated (values are paired with the folded structure 1A2P; ref 20 covers native and denatured states).
A further series concerns the target Asp148 (UniProt position 148, NPTLEDTGYQV). The series is described as follows: NMR.
The next series concerns the target Asp70 (UniProt position 70, VILSTDSQYVR). The series is described as follows: NMR.
The target in a further series is Asp10 (UniProt position 10, VEIFTDGSCLG). Put plainly: NMR.
For the next series, the target named is Asp102 (UniProt position 102, PVKNVDLWQRL). The series is described as follows: NMR.
Where [3] appears, read: listed under PDB 1TRS, redox state not stated in the article, and 1TRS is the oxidised form (inferred).
[4] abbreviates: listed under PDB 1TRW, redox state not stated in the article, and 1TRW is the reduced form (inferred).

By pKa is commonly meant the negative logarithm of the acid dissociation constant. As to “Lysozyme C (turkey egg white) (Meleagris gallopavo)”, the pKa with Asp18 is reported as 2.70; with Glu7 it was 2.70; with Glu35, 6.10; in the series with Asp66 it was 2.00; in the series with Asp87, 2.10; with Asp48 it was 2.50.
Regarding “F1Fo ATP synthase subunit c (Escherichia coli)”, the pKa is reported as 5.60 with Asp44; 5.50 with Glu2; 5.50 with Glu37; 5.60 with Asp7; 7.00 with Asp61.
For “Endo-1,4-beta-xylanase (Bacillus circulans xylanase) (Bacillus circulans)”, the pKa with Asp11 is 2.50; with Asp83, 2.00; in the series with Asp101 [1] it was 2.00; with Glu172, 6.70; with Asp106 it was 2.70.
Consider “Alpha-sarcin (cytotoxic ribonuclease) (Aspergillus giganteus)”, for which the pKa was 4.90 with Glu115 and 5.10 in the series with Glu96.
As for Thioredoxin (Homo sapiens), the pKa with Asp26 (setting [3]) is 8.10; in the series with Asp26 (setting [4]) it was 9.90; with Glu68 (setting [3]), 5.10; with Glu68 (setting [4]), 4.90; with Glu6 it was 4.90.
Take “Beta-elicitin cryptogein (Phytophthora cryptogea)”: the pKa with Asp72 is 2.60; with Asp30, 2.50; with Asp21, 2.50.
As for “Snake cardiotoxin (PDB 1KXI, cardiotoxin V / A5) (Naja atra)”, the pKa with Asp59 is 2.30.
For the substance “Barnase (ribonuclease) (Bacillus amyloliquefaciens)”, the pKa is given as 2.00 with Asp54, 2.00 with Asp93, 2.00 with Asp101 [2] and 2.10 in the series with Glu73.
For Ribonuclease HI (Escherichia coli), the pKa with Asp148 is 2.00; in the series with Asp70, 2.60; with Asp10, 6.10; in the series with Asp102 it was 2.00.
